Columns and labels:
Assay in all cases: cell_activity
I-ScaI = details: three site copies in pBar2, E. coli
I-ScaI I250N I250N = details: three site copies in pBar2, E. coli
I-ScaI D90S D90S = details: catalytically inactive, background; binding not tested

TGAGGTGCACTAGTTA (double strand) [I-ScaI site]
activity (I-ScaI): 65 % survival | activity (I-ScaI I250N I250N): 27 % survival | activity (I-ScaI D90S D90S): 18 % survival
